In test [1] the target is Siz1^(167–449)-ΔN18Smt3^K19R/D68RΔGG97/98-L-E-His6 (yeast) (UniProt Q04195).
Test [2] deals with Siz1^(167–508)-ΔN18Smt3^K19R/D68RΔGG97/98-L-E-His6 (yeast) (UniProt Q04195).
A further test concerns the target Siz1^(167–449) (yeast) (UniProt Q04195).
Another test concerns the target Siz1^(167–508) (yeast) (UniProt Q04195).
Test [3] has as its target Siz1^(167–449)-ΔN18Smt3^K19RΔGG97/98-L-E-His6 (yeast) (UniProt Q04195).

The values below come from publication PMC5019495.

Sequence of Siz1^(167–449) (yeast) (Q04195 167-449): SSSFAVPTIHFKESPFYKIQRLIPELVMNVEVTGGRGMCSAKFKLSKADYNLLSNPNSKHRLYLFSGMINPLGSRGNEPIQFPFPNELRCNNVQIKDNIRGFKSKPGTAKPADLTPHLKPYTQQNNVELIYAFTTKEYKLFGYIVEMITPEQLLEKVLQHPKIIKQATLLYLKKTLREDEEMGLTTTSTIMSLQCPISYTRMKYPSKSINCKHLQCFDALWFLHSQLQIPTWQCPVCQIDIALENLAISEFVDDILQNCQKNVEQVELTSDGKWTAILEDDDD
Sequence of Siz1^(167–508) (yeast) (Q04195 167-508): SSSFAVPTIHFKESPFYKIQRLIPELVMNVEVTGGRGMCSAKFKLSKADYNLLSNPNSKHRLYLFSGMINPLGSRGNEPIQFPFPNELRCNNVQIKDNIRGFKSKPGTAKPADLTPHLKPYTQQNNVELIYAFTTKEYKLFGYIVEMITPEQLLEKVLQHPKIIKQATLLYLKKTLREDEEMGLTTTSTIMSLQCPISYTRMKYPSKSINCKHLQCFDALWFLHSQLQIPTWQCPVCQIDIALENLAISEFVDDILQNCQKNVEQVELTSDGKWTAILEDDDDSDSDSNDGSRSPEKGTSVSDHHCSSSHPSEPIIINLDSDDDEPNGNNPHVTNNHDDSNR
Sequence of Siz1^(167–449)-ΔN18Smt3^K19R/D68RΔGG97/98-L-E-His6 (yeast) (Q04195 whole entry, looked up, stated change not applied, tested part not stated): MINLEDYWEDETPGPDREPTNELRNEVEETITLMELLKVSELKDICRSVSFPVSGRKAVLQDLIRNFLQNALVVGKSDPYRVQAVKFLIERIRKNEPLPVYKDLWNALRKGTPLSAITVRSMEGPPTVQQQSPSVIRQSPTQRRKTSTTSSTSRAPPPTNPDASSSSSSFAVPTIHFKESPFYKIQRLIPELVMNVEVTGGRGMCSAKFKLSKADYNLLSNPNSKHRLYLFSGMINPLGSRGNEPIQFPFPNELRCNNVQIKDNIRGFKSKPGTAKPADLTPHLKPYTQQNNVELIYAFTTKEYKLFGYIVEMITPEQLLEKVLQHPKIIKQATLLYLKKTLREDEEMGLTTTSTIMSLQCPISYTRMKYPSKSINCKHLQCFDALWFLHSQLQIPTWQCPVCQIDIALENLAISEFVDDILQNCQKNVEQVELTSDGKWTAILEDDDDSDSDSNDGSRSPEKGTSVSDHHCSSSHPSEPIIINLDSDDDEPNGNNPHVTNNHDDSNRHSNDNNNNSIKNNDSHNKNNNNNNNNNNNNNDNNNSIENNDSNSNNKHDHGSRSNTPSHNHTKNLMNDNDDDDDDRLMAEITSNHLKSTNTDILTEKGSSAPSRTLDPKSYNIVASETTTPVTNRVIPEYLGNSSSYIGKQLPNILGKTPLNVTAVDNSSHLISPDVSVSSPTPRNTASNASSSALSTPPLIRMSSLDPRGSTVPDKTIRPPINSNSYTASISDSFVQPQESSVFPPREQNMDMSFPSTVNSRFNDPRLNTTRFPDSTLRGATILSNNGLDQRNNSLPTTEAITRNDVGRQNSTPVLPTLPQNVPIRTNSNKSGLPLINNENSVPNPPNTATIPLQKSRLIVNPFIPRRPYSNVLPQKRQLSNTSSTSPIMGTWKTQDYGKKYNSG
Sequence of Siz1^(167–449)-ΔN18Smt3^K19RΔGG97/98-L-E-His6 (yeast) (Q04195 whole entry, looked up, stated change not applied, tested part not stated): as above
Sequence of Siz1^(167–508)-ΔN18Smt3^K19R/D68RΔGG97/98-L-E-His6 (yeast) (Q04195 whole entry, looked up, stated change not applied, tested part not stated): as above

For the substance “Ubc9^K153R-Smt3^K11C/D68R-Alexa488 thioester (from UniProt P50623 1-157; Q12306 1-101) (complex)”, in test [1], the Km of the E2-SUMO thioester, K127 product stood at 4.4 µM and the Km of the E2-SUMO thioester, K164 product turned out to be 1.02 µM. Moreover, the Km of the E2-SUMO thioester, K127 product in test [2] turned out to be 2.07 µM. Also, in the test with Siz1^(167–449) (yeast), the Km of the E2-SUMO thioester, K127 product, no additional SUMO came to 1.23 µM; the Km of the E2-SUMO thioester, K127 product, with 1.5-fold excess Δ18Smt3ΔGGHIS amounted to 1.84 µM; the Km of the E2-SUMO thioester, K164 product, no additional SUMO was determined as 0.91 µM; the Km of the E2-SUMO thioester, K164 product, with 1.5-fold excess Δ18Smt3ΔGGHIS came to 1.44 µM. For the same substance, in the test with Siz1^(167–508) (yeast), the Km of the E2-SUMO thioester, K127 product, no additional SUMO turned out to be 2.34 µM; the Km of the E2-SUMO thioester, K127 product, with 1.5-fold excess Δ18Smt3ΔGGHIS is 1.15 µM; the Km of the E2-SUMO thioester, K164 product, no additional SUMO is 0.91 µM. The Km of the E2-SUMO thioester, K127 product in test [3] stood at 0.48 µM.
